These are literature values, as cited in PMC7955094.

One series addresses His19 (UniProt position 19, ILSALHFMAWT). The conditions noted are these: membrane-bound H27A BM2 tetramer.
A further series concerns the target His37 (UniProt position 37, IIGILHLILWI). The conditions noted are these: AM2 tetramer.

One may read the pKa as the pH at which an ionisable group is half protonated. Regarding “Influenza B virus M2 protein (BM2) H27A mutant (Influenza B virus (strain of the quoted study not stated); H27A)”, in the series with His19, the pKa is 5.6.

With “Influenza A virus M2 protein (AM2) proton channel (Influenza A virus (strain not stated))”, in the series with His37, the pKa was 5.9.
